Reference: patent US10500249B2, “Compositions and methods for preventing or treating diseases, conditions, or processes characterized by aberrant fibroblast proliferation and extracellular matrix deposition” (MOERAE MATRIX, INC., priority 2014, dated 2019)

Columns and labels:
Test in all cases: Kinase Profiling Assay
Type in all cases: biochemical
Conditions in all cases: 100 μM
PDGFRβ (h) = target: T1, PDGFRβ (h) (Homo sapiens, UniProt P09619)
T1 construct: purchased Millipore
Summary of the method: (§1)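 Radiometric filter-binding format: cationic substrate takes up labeled phosphate from ATP unless the inhibitor peptide blocks the kinase. Substrate bound to an anionic filter, scintillation-counted, normalized to 100% activity control. Duplicates; part of a 266-kinase selectivity panel for MK2 peptides.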

Abl (Q252H) (h) = Abl (Q252H) (h) (Homo sapiens, UniProt P00519, Q252H)
Summary of the method: as §1

DYRK2 (h) = target: T2, DYRK2 (h) (Homo sapiens, UniProt Q92630)
T2 construct: purchased Millipore
T2 sequence (Q92630 1-601): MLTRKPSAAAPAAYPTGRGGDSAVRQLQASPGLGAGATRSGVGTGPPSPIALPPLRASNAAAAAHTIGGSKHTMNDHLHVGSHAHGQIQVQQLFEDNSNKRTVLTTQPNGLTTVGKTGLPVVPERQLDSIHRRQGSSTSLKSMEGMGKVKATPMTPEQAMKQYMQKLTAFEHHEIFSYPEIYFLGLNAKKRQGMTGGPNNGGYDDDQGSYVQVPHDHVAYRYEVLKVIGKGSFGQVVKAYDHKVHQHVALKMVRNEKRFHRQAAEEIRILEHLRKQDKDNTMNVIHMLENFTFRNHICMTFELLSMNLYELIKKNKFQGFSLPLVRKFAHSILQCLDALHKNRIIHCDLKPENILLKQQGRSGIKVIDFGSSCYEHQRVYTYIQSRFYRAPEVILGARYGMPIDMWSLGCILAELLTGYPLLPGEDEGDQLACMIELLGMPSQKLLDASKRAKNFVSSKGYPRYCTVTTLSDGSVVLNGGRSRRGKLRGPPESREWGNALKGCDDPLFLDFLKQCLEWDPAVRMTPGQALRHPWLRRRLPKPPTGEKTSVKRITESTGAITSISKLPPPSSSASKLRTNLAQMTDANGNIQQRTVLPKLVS
Summary of the method: as §1

Flt3 (h) = Flt3 (h) (Homo sapiens, UniProt P36888)
Summary of the method: as §1

cKit(D816V) (h) = target: T3, cKit(D816V) (h) (Homo sapiens, UniProt P10721, D816V)
T3 construct: purchased Millipore
Summary of the method: as §1

PASK (h) = target: T4, PASK (h) (Homo sapiens, UniProt Q96RG2)
T4 construct: purchased Millipore
T4 sequence (Q96RG2 whole entry): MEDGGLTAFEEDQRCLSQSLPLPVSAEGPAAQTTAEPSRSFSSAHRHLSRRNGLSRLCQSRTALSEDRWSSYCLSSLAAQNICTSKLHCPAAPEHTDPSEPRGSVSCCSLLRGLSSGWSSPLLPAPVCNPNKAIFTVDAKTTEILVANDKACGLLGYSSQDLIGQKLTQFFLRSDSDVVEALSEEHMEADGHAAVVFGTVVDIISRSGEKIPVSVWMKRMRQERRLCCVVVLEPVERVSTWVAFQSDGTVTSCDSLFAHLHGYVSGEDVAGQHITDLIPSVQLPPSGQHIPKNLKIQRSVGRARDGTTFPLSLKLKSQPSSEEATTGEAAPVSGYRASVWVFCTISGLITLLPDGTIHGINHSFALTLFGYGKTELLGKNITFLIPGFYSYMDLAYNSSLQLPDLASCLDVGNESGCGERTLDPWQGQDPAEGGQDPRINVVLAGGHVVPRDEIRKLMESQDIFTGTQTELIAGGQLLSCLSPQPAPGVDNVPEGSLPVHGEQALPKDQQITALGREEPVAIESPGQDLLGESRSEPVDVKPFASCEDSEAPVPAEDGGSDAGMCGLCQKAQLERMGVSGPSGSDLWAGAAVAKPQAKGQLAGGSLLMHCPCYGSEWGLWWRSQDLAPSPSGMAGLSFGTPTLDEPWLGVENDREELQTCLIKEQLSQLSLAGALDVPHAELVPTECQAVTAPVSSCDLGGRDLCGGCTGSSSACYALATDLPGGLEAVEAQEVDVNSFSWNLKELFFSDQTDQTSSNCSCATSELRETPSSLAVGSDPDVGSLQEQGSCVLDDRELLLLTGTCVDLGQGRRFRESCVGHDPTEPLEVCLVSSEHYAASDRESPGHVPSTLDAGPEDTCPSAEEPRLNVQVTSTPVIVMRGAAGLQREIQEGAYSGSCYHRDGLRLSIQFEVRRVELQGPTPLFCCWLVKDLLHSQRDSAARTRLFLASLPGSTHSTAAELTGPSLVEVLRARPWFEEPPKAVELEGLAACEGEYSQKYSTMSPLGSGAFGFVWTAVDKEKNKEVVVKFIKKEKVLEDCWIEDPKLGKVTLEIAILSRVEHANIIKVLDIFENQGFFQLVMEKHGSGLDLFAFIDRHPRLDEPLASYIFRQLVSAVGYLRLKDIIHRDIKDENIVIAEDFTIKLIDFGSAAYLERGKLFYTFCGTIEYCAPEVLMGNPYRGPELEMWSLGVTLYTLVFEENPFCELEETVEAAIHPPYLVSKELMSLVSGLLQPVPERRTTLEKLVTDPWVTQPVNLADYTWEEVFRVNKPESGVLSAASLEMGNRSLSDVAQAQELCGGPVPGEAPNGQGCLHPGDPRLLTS
Summary of the method: as §1

PTK5 (h) = PTK5 (h) (Homo sapiens, UniProt P42685)
Chain of PTK5 (h) (P42685 whole entry): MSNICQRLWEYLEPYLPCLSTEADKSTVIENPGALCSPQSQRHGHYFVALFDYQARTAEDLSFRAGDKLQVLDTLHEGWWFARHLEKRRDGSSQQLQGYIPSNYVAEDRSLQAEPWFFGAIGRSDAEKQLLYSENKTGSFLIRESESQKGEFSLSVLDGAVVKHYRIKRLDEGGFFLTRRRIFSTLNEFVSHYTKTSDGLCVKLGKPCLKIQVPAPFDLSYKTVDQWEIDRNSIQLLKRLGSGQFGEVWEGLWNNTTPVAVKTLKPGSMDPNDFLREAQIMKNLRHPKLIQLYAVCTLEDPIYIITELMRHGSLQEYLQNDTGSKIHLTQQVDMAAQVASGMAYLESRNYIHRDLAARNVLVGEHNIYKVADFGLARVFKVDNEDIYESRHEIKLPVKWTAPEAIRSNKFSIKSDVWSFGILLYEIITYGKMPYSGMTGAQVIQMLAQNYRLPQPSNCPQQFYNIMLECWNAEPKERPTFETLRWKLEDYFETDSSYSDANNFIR
Summary of the method: as §1

EGFR (h) = target: T5, EGFR (h) (Homo sapiens, UniProt P00533)
T5 construct: purchased Millipore
Summary of the method: as §1

Met(D1246N) (h) = Met(D1246N) (h) (Homo sapiens, UniProt P08581, D1228N)
Summary of the method: as §1

EphB1 (h) = target: T6, EphB1 (h) (Homo sapiens, UniProt P54762)
T6 sequence (P54762 18-984): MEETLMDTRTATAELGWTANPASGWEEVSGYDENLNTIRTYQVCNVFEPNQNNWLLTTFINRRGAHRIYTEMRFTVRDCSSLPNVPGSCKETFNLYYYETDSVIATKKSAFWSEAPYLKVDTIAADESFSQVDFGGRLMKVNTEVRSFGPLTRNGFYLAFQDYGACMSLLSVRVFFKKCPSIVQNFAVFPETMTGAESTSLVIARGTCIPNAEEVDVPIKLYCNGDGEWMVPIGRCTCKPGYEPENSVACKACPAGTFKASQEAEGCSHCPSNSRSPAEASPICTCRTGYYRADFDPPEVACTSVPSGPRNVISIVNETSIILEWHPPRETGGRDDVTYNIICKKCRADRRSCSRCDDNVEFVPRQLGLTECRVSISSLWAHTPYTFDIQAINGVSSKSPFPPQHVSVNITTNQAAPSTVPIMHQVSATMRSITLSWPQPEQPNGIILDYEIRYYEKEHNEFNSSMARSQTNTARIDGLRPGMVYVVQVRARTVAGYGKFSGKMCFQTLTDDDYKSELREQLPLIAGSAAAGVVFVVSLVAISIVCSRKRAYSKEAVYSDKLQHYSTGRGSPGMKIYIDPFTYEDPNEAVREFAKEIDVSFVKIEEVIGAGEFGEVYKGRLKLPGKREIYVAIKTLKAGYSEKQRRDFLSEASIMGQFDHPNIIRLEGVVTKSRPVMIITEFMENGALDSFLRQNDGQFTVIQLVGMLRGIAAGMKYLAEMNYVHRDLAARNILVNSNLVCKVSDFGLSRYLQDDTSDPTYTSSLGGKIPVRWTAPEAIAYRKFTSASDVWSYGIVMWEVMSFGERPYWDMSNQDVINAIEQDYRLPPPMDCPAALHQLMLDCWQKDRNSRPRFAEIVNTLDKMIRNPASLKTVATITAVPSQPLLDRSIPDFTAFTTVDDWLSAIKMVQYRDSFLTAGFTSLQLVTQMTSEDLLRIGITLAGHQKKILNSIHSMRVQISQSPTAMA
Summary of the method: as §1

CK1δ (h) = target: T7, CK1δ (h) (Homo sapiens, UniProt P48730)
T7 construct: purchased Millipore
T7 sequence (P48730 whole entry): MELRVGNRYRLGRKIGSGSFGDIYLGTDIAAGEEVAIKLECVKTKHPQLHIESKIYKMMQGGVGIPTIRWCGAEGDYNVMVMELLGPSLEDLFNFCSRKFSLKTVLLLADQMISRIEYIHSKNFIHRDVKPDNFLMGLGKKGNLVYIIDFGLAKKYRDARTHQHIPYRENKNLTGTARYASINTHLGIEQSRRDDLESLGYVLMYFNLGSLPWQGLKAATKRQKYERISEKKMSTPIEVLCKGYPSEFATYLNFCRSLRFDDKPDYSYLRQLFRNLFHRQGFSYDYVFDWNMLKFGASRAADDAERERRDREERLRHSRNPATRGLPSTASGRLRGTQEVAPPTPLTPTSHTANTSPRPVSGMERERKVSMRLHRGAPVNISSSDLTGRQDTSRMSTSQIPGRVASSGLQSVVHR
Summary of the method: as §1

MELK (h) = MELK (h) (Homo sapiens, UniProt Q14680)
Summary of the method: as §1

NEK7 (h) = target: T8, NEK7 (h) (Homo sapiens, UniProt Q8TDX7)
T8 construct: purchased Millipore
T8 sequence (Q8TDX7 whole entry): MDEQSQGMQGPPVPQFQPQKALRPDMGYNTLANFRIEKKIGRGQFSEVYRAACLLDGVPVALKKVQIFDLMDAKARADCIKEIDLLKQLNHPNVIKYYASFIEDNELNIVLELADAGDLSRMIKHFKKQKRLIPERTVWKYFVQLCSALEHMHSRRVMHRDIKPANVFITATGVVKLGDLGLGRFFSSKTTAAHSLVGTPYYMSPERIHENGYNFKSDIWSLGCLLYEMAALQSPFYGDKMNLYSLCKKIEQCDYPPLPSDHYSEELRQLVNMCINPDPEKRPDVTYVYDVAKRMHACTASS
Summary of the method: as §1

ZIPK (h) = ZIPK (h) (Homo sapiens, UniProt O43293)
Chain of ZIPK (h) (O43293 whole entry): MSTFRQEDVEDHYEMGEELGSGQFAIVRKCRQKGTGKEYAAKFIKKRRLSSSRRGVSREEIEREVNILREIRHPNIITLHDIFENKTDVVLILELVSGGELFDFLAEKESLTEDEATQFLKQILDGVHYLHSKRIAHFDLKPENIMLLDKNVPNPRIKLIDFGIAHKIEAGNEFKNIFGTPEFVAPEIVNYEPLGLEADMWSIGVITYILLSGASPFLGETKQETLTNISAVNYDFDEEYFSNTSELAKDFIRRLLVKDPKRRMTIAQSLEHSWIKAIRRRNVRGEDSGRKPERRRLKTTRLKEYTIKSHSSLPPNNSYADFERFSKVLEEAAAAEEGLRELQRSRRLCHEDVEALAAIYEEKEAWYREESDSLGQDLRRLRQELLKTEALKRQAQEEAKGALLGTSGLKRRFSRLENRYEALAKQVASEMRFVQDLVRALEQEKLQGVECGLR
Summary of the method: as §1

TrkB (h) = TrkB (h) (Homo sapiens, UniProt Q16620)
Summary of the method: as §1

Rsk1 (h) = Rsk1 (h) (Homo sapiens, UniProt Q15418)
Chain of Rsk1 (h) (Q15418 whole entry): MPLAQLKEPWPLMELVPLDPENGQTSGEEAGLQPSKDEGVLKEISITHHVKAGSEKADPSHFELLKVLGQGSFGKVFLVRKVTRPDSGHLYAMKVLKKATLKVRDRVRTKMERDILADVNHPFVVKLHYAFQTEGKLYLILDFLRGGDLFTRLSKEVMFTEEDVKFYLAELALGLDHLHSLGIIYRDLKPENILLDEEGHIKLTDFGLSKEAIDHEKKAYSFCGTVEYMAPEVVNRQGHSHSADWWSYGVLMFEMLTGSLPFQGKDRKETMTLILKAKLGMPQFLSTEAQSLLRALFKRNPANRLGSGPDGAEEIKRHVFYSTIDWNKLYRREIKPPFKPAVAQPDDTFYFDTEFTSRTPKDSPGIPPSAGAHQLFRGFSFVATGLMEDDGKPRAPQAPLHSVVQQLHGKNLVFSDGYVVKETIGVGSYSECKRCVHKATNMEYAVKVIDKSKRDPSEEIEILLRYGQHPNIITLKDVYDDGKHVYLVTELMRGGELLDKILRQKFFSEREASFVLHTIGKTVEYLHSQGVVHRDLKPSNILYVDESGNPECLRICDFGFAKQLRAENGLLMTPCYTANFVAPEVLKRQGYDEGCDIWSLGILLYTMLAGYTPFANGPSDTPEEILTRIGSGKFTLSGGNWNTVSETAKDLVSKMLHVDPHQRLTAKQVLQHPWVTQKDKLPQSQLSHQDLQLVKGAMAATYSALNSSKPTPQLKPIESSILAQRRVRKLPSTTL
Summary of the method: as §1

Met(Y1248D) (h) = Met(Y1248D) (h) (Homo sapiens, UniProt P08581, Y1230D)
Summary of the method: as §1

T1 sequence (P09619 33-1106): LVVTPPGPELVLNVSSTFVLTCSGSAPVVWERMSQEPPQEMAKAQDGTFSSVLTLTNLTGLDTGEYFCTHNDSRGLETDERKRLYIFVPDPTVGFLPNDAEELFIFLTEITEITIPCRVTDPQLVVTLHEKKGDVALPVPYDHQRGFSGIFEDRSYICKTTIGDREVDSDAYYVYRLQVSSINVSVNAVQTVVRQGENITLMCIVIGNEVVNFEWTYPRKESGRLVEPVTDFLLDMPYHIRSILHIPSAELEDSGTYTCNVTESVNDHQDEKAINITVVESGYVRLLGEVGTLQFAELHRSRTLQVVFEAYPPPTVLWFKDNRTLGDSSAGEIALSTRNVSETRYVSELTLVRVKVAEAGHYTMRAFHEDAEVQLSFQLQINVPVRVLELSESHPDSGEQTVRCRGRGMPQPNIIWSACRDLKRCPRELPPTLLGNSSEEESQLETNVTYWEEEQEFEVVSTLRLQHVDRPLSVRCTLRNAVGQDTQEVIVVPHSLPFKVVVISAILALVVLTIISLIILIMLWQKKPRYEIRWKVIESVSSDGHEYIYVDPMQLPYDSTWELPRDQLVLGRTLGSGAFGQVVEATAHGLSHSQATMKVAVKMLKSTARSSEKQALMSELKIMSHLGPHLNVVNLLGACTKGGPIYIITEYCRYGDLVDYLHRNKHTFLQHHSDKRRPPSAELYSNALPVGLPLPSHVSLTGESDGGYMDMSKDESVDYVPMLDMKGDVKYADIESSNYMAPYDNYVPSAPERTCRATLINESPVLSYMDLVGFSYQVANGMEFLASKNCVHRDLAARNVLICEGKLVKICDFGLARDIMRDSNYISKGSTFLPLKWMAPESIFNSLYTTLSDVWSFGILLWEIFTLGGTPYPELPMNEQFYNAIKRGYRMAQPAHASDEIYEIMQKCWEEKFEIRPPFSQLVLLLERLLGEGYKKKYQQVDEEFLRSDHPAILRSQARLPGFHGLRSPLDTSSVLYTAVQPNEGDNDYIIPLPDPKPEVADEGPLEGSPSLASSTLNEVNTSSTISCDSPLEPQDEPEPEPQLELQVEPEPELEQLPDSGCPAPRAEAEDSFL

Row | Sequence | % activity (PDGFRβ (h)) | % activity (Abl (Q252H) (h)) | % activity (DYRK2 (h)) | % activity (Flt3 (h)) | % activity (cKit(D816V) (h)) | % activity (PASK (h)) | % activity (PTK5 (h)) | % activity (EGFR (h)) | % activity (Met(D1246N) (h)) | % activity (EphB1 (h)) | % activity (CK1δ (h)) | % activity (MELK (h)) | % activity (NEK7 (h)) | % activity (ZIPK (h)) | % activity (TrkB (h)) | % activity (Rsk1 (h)) | % activity (Met(Y1248D) (h))
1 | FAKLAARLYRKALARQLGVAA [MMI-0300] | 81% | 82% | 155% | 84% | 60% | 29% | 132% | 21% | 82% | 44% | 92% | 16% | 84% | 28% | 5% | 46% | 
2 | HRRIKAWLKKIKALARQLGVAA (Mammalian) [MMI-0500] | 40% | 40% | 127% | 17% | 30% | 9% | 96% | −1% | 90% | 37% | 78% | 0% | 89% | 1% | 12% | 34% | 218%
3 | KAFAKLAARLYRKALARQLGVAA [MMI-0400] | 53% | 98% | 195% | 18% | 35% | 28% | 129% | 16% | 31% | 58% | 93% | 17% | 87% | 13% | 8% | 54% | 31%
4 | YARAAARQARAKALNRQLGVA (Mammalian) [MMI-0200] | 137% |  | 142% | 99% | 118% | 60% | 108% | 83% | 149% | 95% | 92% | 59% | 96% | 67% | 7% |  | 118%
